Reference: PMC2906322

Target: RhoGDIα S34D (phosphomimetic), bacterially expressed, hexahistidine-tagged (human) (UniProt P52565)
Experiment: pull-down

Sequence of UniProt P52565 (P52565 whole entry S34D): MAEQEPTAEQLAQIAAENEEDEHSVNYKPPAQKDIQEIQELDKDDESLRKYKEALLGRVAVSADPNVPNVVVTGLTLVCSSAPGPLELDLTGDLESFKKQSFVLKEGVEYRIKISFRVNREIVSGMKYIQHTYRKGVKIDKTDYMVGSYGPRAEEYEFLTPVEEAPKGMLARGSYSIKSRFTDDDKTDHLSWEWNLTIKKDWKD

Substance: RhoA, endogenous in rat embryo fibroblasts (from UniProt P61589 1-193) (natural protein)
- reduction of binding against wild-type RhoGDIα: 75%
